The record followed here is doi:10.1101/2022.04.21.488985 (bioRxiv, 2022).

The assay addresses T1, bovine serum albumin (Bos taurus, UniProt P02769).
T1 construct: also called BSA
Nature of the assay: ELISA. (In an ELISA, binding on a coated surface is turned into a signal by an enzyme label.)

T1 sequence (P02769 25-607): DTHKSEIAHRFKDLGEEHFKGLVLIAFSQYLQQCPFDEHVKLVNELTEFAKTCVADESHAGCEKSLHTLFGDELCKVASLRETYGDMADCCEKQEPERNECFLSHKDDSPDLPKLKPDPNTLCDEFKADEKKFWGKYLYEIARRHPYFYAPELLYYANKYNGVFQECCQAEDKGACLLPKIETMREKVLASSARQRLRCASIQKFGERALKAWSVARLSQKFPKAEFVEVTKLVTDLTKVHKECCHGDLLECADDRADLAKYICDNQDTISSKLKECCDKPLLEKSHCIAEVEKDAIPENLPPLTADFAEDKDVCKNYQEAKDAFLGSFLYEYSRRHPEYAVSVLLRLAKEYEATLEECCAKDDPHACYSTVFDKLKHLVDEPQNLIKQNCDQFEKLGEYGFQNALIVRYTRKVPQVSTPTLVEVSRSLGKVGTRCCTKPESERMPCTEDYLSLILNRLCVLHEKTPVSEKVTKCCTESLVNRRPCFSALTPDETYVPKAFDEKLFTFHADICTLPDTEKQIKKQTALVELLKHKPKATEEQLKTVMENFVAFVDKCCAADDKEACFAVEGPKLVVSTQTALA

B1: D5 nanobody (camel VHH) (VHH)
VHH: AWQLVESGGGSVQPGGSLTLTCQASKSTFSTSGMRWERQAQGKGVEFVADISSDSTRKWYSDSVKGRFTISRSNWWRTVTLQMNDLKPEDTARYYCKDLESHHLRGQGTQVTVSS
notes: also called single domain antibody D5
Consider B1, for which the binding result is reported as “no binding”.
